US20130310265A1, “METHODS OF PREPARING CYCLIC PEPTIDES AND USES THEREOF” (NORTH CAROLINA STATE UNIVERSITY, priority 2012, published 2013)
Bridges are numbered along the chain shown (N, C = ends). Where no end group is shown, it is not given here. [ ]: non-standard residue; d: D form. Lac = C[C@H](O)C(=O)O

B1: cyclo[Lac-A-VVWVV-E] (peptide)
peptide: [Lac]AVVWVVE
modifications: bridge N-8; not fully specified (C-terminus, bridges); printed as cyclo[Lac-A-VVWVV-E]
notes: also called cyclo[Lac-A-VVWVV-E]-HMBA-ChemMatrix; negative control resin

Assays:
[1] = target: T1, Neutravidin (Gallus gallus, UniProt P02701); assay: Chromatographic comparison of cyclic depsipeptide and cyclic peptide resins on column; conditions: Toyopearl resin column, binding PBS pH 7.4, elution 0.2M Glycine pH 2.5, absorbance 280 nm
Protocol: Thirty-five milligrams of cyclo[Lac-A-DRASPY-E]-Toyopearl resin and cyclo[A-A-DRASPY-E]-Toyopearl (SEQ ID NO:21, 29) resin were packed in a 30 mm×2.1 mm I.D. Microbore column (0.1 mL) and swollen with 20% v/v methanol. One hundred microliters of feed sample, namely Neutravidin 5 mg/mL in PBS pH 7.4, was loaded onto the column at a flow rate of 0.05 mL/min (87 cm/h). The column was washed with 2 mL of equilibration buffer at a flow rate of 0.2 mL/min (348 cm/h). Elution was then performed with 4 mL of 0.2M glycine buffer pH 2.5 at the flow rate of 0.4 mL/min (696 cm/h). Cleaning and regeneration were performed by 4 mL of 0.85% phosphoric acid. The effluent was monitored by absorbance at 280 nm. Fractions were collected and concentrated five times by centrifugation at 4° C., 20817×g for 30 min using an Amicon® Ultra centrifugal filter (3000 MWCO, Ultracel®, Millipore, Billerica, Mass., USA).
Cyclic depsipeptides are present in nature as very selective ligands and enzyme substrates. In many cases, however, the depside (ester) bond is found to play an active role in their biological activity and the homodetic cyclic peptide version of the same sequence can partially or completely loose the target affinity. […]

[2] = target: T1, Neutravidin; assay: Screening simulation by the Mondorf-Carbonell radiological procedure with 14C-radiolabeled Neutravidin; format: binding; conditions: 10 mg of 50:50 mix of ligand resin and negative control resin, PBS, 5% 14C-radiolabeled Neutravidin, washed with PBS 0.2M NaCl 0.1% Tween 20, film five days
From the text: A solid phase library of reversible cyclic peptides synthesized as explained in sections 5.2 and 5.3 can be screened for on-bead ligands that bind to a target biological. […] The selected beads are then subjected to the alkaline treatment reported in section 5.7. See Mondorf and Carbonell 1998.
Neutravidin was radiolabeled according to the procedure reported by Mondorf et al. using ^14C formaldehyde by reductive amination. The prospected extent of radiolabeling was 5%. Mondorf Carbonell 1998.
Two aliquots of cyclo[Lac-A-DRASPY-E]-HMBA-ChemMatrix resin and cyclo[Lac-A-VVWVV-E]-HMBA-ChemMatrix (SEQ ID NO:20-21) resin and were mixed in a 50:50 proportion. 10 mg of the resin mix was swollen in 20% methanol in water for 30 min and then rinsed with PBS, pH 7.4 (3×5 min). The resin slur was then mixed with 200 μl of 5 mg/mL ^14C-labelled Neutravidin. After 2 hrs of incubation the supernatant was decanted and the resin was washed with PBS buffer containing 0.2M NaCl and 0.1% (w/v) Tween 20 until the radioactivity reached the baseline level. […]
(§1) The screening procedure followed the method set forth in sections 5.5 and 6.5. […] A volume of 250 mL of washing solution was necessary in order for the radioactivity to reach the baseline level. […] In both cases, the difference between the levels of radioactivity carried by the resin was enough to discriminate the ligand resin beads from the negative control beads.

[3] = target: T2, Neutravidin (UniProt P02701 25-152); assay: radiological on-bead screening (autoradiography of beads in agarose)
T2 construct: In the bead screening it was radiolabelled with 14C formaldehyde by reductive amination (prospected extent 5%); In the column runs it was unlabelled, 5 mg/mL in PBS pH 7.4; also called 14C-labelled Neutravidin; target protein
Protocol: Two aliquots of cyclo[Lac-A-DRASPY-E]-HMBA-ChemMatrix resin and cyclo[Lac-A-VVWVV-E]-HMBA-ChemMatrix (SEQ ID NO:20-21) resin and were mixed in a 50:50 proportion. 10 mg of the resin mix was swollen in 20% methanol in water for 30 min and then rinsed with PBS, pH 7.4 (3×5 min). The resin slur was then mixed with 200 μl of 5 mg/mL ¹⁴C-labelled Neutravidin. After 2 hrs of incubation the supernatant was decanted and the resin was washed with PBS buffer containing 0.2M NaCl and 0.1% (w/v) Tween 20 until the radioactivity reached the baseline level. The washed resin was then mixed with 20 mL of 1% low melting agarose solution. The mixture was swirled to form a uniform suspension and then the slurry was poured on 16×18 cm gelbond film to form a monolayer of beads. This gel was air-dried overnight in a hood. The dried agarose gel was then exposed to photographic film for 5 days at room temperature. The photographic film was then developed, the dark spot located on the film and the corresponding beads selected.
as §1

T1 sequence (P02701 25-152): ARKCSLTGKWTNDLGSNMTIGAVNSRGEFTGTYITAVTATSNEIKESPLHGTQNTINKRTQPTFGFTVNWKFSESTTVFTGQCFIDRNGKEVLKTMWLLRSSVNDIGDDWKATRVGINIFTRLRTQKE
T2 sequence (P02701 25-152): as above

| Molecule | binding chromatogram, cyclic depsipeptide vs cyclic peptide version of the same ligand sequence (FIG. 35) [1] | amount of radiolabeled target protein bound by resin beads (dark spot on developed radiographic film) [2] | other results |
| --- | --- | --- | --- |
| cyclo[A-A-DRASPY-E] (AADRASPYE-{Toyopearl AF‑Amino‑650M resin}; lactam N-9; not fully specified; printed as cyclo[A-A-DRASPY-E]) [cyclo[A-A-DRASPY-E]-Toyopearl, homodetic cyclic peptide analogue of DRASPY depsipeptide on Toyopearl resin] | no difference |  |  |
| cyclo[Lac-A-DRASPY-E] [cyclo[Lac-A-DRASPY-E]-HMBA-ChemMatrix] |  | bound a sufficient amount of radiolabeled target protein to impress a dark spot |  |
| cyclo[Lac-A-DRASPY-E] [cyclo[Lac-A-DRASPY-E]-Toyopearl] | no difference |  |  |
| cyclo[Lac-A-VVWVV-E] ([Lac]AVVWVVE; bridge N-8; not fully specified (C-terminus, bridges); printed as cyclo[Lac-A-VVWVV-E]) [cyclo[Lac-A-VVWVV-E]-HMBA-ChemMatrix] |  | bound a sufficient amount of radiolabeled target protein to impress a dark spot |  |
| B1 |  |  | binding result [3]: no binding |
